# T1: μMASS^2A (rat)
# T1 chain: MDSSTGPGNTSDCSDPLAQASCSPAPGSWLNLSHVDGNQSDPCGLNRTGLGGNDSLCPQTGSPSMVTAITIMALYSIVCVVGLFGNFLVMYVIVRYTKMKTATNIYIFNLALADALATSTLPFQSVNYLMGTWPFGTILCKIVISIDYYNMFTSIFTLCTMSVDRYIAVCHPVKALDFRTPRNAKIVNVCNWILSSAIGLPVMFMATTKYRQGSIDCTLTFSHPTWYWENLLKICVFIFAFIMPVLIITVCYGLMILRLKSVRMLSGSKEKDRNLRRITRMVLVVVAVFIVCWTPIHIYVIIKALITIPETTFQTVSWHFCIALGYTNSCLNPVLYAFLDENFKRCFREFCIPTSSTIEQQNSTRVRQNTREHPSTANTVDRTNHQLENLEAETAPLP
# Target: T1, μMASS^2A
# Experiment: other fluorescence titration
binder,measurement,value
"YGGFMTSEKSQTPLVTLFKNAIIKNAYKKGE (peptide, UniProt P01189 237-267, looked up) [β-endorphin]",Kd,1180 nM

# From publication doi:10.1101/2022.06.01.494241 (bioRxiv, 2022)
